In PMC10794598:

Columns and labels:
[1] = target: BY2-RBD (ER-retained receptor-binding domain of the SARS-CoV-2 S protein expressed stably in Nicotia (SARS-CoV-2) (UniProt P0DTC2)); experiment: non-reducing PAGE Western blot
[2] = target: NB-RBD (ER-retained receptor-binding domain of the SARS-CoV-2 S protein expressed transiently in N. benthamiana) (SARS-CoV-2) (UniProt P0DTC2); experiment: non-reducing PAGE Western blot

Row | Substance | stoichiometry N [1] | stoichiometry N [2]
1 | BY2-RBD (ER-retained receptor-binding domain of the SARS-CoV-2 S protein expressed stably in Nicotia (from UniProt P0DTC2 319-541) (domain or fragment) | 4 | 
2 | NB-RBD (ER-retained receptor-binding domain of the SARS-CoV-2 S protein expressed transiently in N. benthamiana) (from UniProt P0DTC2 319-541) (domain or fragment) |  | 4
